In paper PMC13237374:

Target: human medin (human) (UniProt Q08431)
Experiment: thioflavin T aggregation kinetics

Substance: human medin (from UniProt Q08431 268-317) (peptide)
- critical concentration of aggregation: 14 nM
- critical monomer concentration for aggregation: 10 to 25 nM
- elongation rate constant k+ (monomer addition to fibril ends): 5e+07 M⁻¹ s⁻¹
